Data from patent US6933368.
Each block holds one molecule with its values, some of them ahead of it.

Target: CD33 antigen (UniProt P20138)
Assay: competitive binding against 125I-murine M195 on HL60 cells

Chain of UniProt P20138 (P20138 18-364 limits assumed): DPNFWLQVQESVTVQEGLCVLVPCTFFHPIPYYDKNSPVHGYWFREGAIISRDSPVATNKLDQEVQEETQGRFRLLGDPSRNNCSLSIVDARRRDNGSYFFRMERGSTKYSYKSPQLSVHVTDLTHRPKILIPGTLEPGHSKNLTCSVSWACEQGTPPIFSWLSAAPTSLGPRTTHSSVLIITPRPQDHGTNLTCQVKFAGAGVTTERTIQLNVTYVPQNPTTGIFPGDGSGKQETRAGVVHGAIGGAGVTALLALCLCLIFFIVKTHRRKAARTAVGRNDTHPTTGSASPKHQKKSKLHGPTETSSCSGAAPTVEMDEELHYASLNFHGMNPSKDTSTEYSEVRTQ

fold increase in binding affinity against the chimeric antibody: 8 fold
Molecule: aglycosylated chimeric M195 antibody

Ka: 2e+09 M⁻¹
Molecule: murine M195 antibody

fold increase in binding affinity against the chimeric (or murine) antibody: 8 fold
B1: humanized M195 antibody (antibody, INN chains, looked up, human IgG1, V domains shown)
VH: QVQLVQSGAEVKKPGSSVKVSCKASGYTFTDYNMHWVRQAPGQGLEWIGYIYPYNGGTGYNQKFKSKATITADESTNTAYMELSSLRSEDTAVYYCARGRPAMDYWGQGTLVTVSS
VL: DIQMTQSPSSLSASVGDRVTITCRASESVDNYGISFMNWFQQKPGKAPKLLIYAASNQGSGVPSRFSGSGSGTDFTLTISSLQPDDFATYYCQQSKEVPWTFGQGTKVEIK
